Data from PMC10209032, “Molecular determinants for Rous sarcoma virus intasome assemblies involved in retroviral integration”.

Assays:
[1] = target: Rous sarcoma virus integrase IN (1–278), C-terminal tail truncation (Rous sarcoma virus (Prague A)); test: cryo-EM structure; STC intasome assembled from IN (1–278) 35 μM and the viral/target DNA substrate 10 μM by dialysis, purified by SEC in 20 mM HEPES pH 7.5, 650 mM NaCl, 1 mM TCEP; single particle, C2 symmetry, 3.36 Å; the IN oligomer stands on two DNA substrates
[2] = target: Rous sarcoma virus (RSV) integrase, WT full-length IN (1–286 aa), Prague A (Rous sarcoma virus (Prague A)); test: not stated; oligomeric state of free purified IN proteins, without DNA; shown in Fig. S5, method and conditions not given
[3] = target: Rous sarcoma virus integrase IN (1–286) Y246A (Rous sarcoma virus (Prague A)); test: as above
[4] = target: Rous sarcoma virus integrase IN (1–286) R244A (Rous sarcoma virus (Prague A)); test: as above
[5] = target: Rous sarcoma virus integrase IN (1–286) R244E (Rous sarcoma virus (Prague A)); test: as above
RSV IN (1-278) = target: T1, RSV IN (1-278) (Rous sarcoma virus, Prague A, UniProt P03354 1281-1558); test: cryo-EM (3.36 A); SEC; Zn2+ and Mg2+ listed in structure table; octameric STC; STC (IN 1-278, cryo-EM prep): 35 uM IN + 10 uM DNA in 20 mM HEPES pH 7.5, 1 M NaCl, 20% glycerol, 1 mM TCEP, dialyzed to 0.125 M NaCl, solubilized at 0.75 M NaCl; SEC in 20 mM HEPES pH 7.5, 650 mM NaCl, 1 mM TCEP. Mutant STC 18 h at 4 C; CSC with MK-2048 18 h at 18 C (buffer not in material); settings: protein: recombinant; chain copies: 8; branched; S2 pairs with S1[1-20] leaving 5' AA unpaired; S3 pairs with S1[27-42]; self-complementary S1[21-26]; GTGCAC pairs two copies; 2 copies of each strand in STC
T1 sequence: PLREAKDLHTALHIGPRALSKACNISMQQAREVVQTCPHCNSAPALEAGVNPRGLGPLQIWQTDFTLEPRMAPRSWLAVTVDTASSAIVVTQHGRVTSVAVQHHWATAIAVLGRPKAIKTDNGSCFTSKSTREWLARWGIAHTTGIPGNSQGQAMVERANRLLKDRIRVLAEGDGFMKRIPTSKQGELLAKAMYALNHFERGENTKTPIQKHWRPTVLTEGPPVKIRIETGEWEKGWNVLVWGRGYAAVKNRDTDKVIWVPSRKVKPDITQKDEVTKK

**Q.** “Rous sarcoma virus integrase IN (1–278), C-terminal tail truncation (enzyme)” was tested. Which stoichiometry N [1] did it give?
**A.** 8

**Q.** Which stoichiometry N [2] does the source give for “Rous sarcoma virus (RSV) integrase, WT full-length IN (1–286 aa), Prague A (enzyme)” here?
**A.** 2

**Q.** “Rous sarcoma virus integrase IN (1–286) Y246A (enzyme)” was tested. Which stoichiometry N [3] did it give?
**A.** 2

**Q.** With “Rous sarcoma virus integrase IN (1–286) R244A (enzyme)” as the molecule, how does the stoichiometry N [4] read?
**A.** 2

**Q.** “Rous sarcoma virus integrase IN (1–286) R244E (enzyme)” was tested. Which stoichiometry N [5] did it give?
**A.** 2

B1: RSV STC substrate (viral/target DNA) (mixed)
DNA 1: GAGTATTGCATAAGACAACAGTGCACGAAAGAAGAAGACACT
DNA 2: AATGTTGTCTTATGCAATACTC
DNA 3: AGTGTCTTCTTCTTTC
**Q.** Does B1 bind (RSV IN (1-278))?
**A.** binds
